We go through nine molecules from patent US7537764.

Sequences and labels used below:
T1: recombinantly expressed purified soluble WNV E protein (truncated form, strain 382-99) (West Nile virus strain 382-99, UniProt Q9Q6P4 291-696)
T1 construct: also called recombinant WNV-E protein; truncated E protein
T1 sequence: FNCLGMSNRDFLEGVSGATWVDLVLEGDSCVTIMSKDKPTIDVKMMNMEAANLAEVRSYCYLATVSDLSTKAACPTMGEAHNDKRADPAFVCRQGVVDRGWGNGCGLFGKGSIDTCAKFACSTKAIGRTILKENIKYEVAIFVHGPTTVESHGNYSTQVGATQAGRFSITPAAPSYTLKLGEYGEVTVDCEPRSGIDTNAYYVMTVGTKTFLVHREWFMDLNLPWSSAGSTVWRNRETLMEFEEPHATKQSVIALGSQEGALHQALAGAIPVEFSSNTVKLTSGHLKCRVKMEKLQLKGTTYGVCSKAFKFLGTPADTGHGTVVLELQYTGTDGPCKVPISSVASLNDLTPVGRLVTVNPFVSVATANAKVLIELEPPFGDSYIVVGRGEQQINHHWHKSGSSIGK

B1: SC04-283 (scFv)
scFv: EVQLVQSGAEVKKSGESLKISCKGSGYTFNTYWIGWVRQMPGKGLEWMGIIYPGDSDTIYSPSFQGQVTISADKSISTAYLQWSSLKASDSAMYYCARLTFRRGYSGSDSFLPPGDFDYWGQGTLVTVSSGTGGSGGTGSGTGGSTDIQMTQSPSTLSASVGDRVTITCRASQSISSWLAWYQQKPGKAPNLLIYAASSLQSGVPSRFSGSGSGTDFTLTISSLQPDDSATYYCQQYNTYPLTFGGGTKVEIKR
B2: SC04-311 (scFv)
scFv: EVQLVQSGGGVVQPGRSLRLSCVASGFTFSKDAMHWVRQAPGKGLEWVAVISYDGSDKHYADSVKGRVTISRDNSRKTLYLRMDSLRAEDTALYYCARGYNSGHYFDYWGQGTLITVSSGTGGSGGTGSGTGGSTQSVLTQPPSVSAAPGQKVTISCSGTSSNIGDNYVSWYQHLPGTAPKLLIYDNNKRPSGIPDRFSGSKSGTSATLGVTGLQTGDEADYYCGTWDSSLTAVVFGGGTKLTVLG
B3: SC04-289 (scFv)
scFv: QMQLVQSGAEVKKPGESLRISCKGSGYSFTSNWITWVRQMPGKGLEWMGRIDPSDSYTNYSPSFQGHVTISADKSISTAYLQWSSLKASDTAMYYCARDVVGVGASDYYYYMDVWGKGTTVTVSSGTGGSGGTGSGTGGSTEIVLTQSPGTLSLSPGETATLSCRTSQSVSSSYLGWYQQKPGQAPRLLIYGASIRATGIPARFSGSGSGTEFTLTIDSLQSEDFAVYYCQQYNNWPPITFGQGTRLEIKR
B4: SC04-271 (scFv)
scFv: EVQLVETGAEVKKPGESLRISCKGSGYTFNNYWIGWVRQMPGKGLEWMGIIYPGDSDTRYSPSVQGHVTISADKSINTAYLQWSSLKASDTAVYYCARRPGYDYGFYYFDYWGQGTLVTVSSGTGGSGGTGSGTGGSTQSALTQPRSVSGSPGQSVTISCTGTSSDVGGYNYVSWYQHHPGKAPKLMIYDVSNRPLGVSNRFSGSKSGNTASLTISGLQAEDEADYYCSSYTSSSTYVFGTGTHLTVLS
B5: SC04-299 (scFv)
scFv: EVQLVETGGGVVQPGRSLRLSCAASGFTFSGYAMHWVRQAPGKGLDWVAVISYDGSEKYSADSVKGRFTISRDNSKNTLYLQMNSLRAEDTAVYYCAKESGGPIWYKYYGVDVWGQGTTVTVSSGTGGSGGTGSGTGGSTSYVLTQPPSLSAAPRQRVTISCSGSSSNIGNYGVNWYQQLPGKAPKLLIYYDDLLPSGVSDRFSGSKSGTSASLAISGLQSEDEGDYYCAAWDDTLSAWVFGGGTKLTVLG
B6: SC04-361 (scFv)
scFv: EVQLVQSGAEVKKPGESLKISCKASGFSFSTYWIGWVRQMPGKGLEWMGIIYPADSDTRYSPSFQGQVTISADKSISTAYLQWSSLKASDTAMYYCARLRGPYYDFWNGYRETHDAFNVWGQGTMVTVSSGTGGSGGTGSGTGGSTDVVMTQSPDSLAVSLGERATINCKSSQNILDNSDNKNFLAWYQQKPGQPPKLLIYWASARESGVPDRFSGSGSGTDFTLTISSLQAEDVALYYCQQYYNTPITFGQGTRLEIKR
B7: SC04-374 (scFv)
scFv: QVTLKESGPTLVKPTQTLTLTCTFSGFSLSTSGVGVGWIRQPPGKALEWLAVIYWNDDKLYRPSLKSRLTITKDTSKNQVVLTMTKMDPVDTATYYCAHRHRYYDISGYYRLFSDAFDIWGQGTMVTVSSGTGGSGGTGSGTGGSTQSVVTQPPSVSGAPGQRVTISCTGSSSNIGAGYDVHWYQQLPGTAPKLLIYGNSNRPSGVPDRFSGSKSGTSASLAITGLQAEDEADYYCQSYDSSLSGSVFGGGTKLTVLG
B8: SC04-353 (scFv)
scFv: EVQLVQSGGGVVQPGRSLRLSCAASGFTFSNYAMHWVRQAPGKGLEWVAVISYDGGNKYYADSVKGRFTMSRDNSKNTLYLQMNSLRAEDTAVYYCARDFWSGYSMVDSYYYYMDVWGKGTTVTVSSGTGGSGGTGSGTGGSTETTLTQSPGTLSLSPGERATLSCRASQSVSNTFLAWYQQKPGQAPRLLIYGASSRATGIPDRFSGSGSGTDFTLTISRLEPEDFAAYYCQQYGSSLTFGPGTKVDIKR
B9: SC04-325 (scFv)
scFv: QMQLVQSGAEVKKPGSSVKVSCKASGDTFSSYAISWVRQAPGQGLEWMGGIFGTASYAQKFQGRVTITADESTSTAYMELSSLRSEDTAVYYCARGGMATTPGLDYWGQGTLVTVSSGTGGSGGTGSGTGGSTDIQLTQSPDSLAVSLGERATINCKSSQSVLYSSNNKNYLAWYQQKPGQPPKLLIYWASTRESGVPDRFSGSGSGTDFTLTISSLQAEDVAVYYCQQYYSTPLTFGQGTKVEIKR

One assay addresses T2, West Nile virus strain USA99b (strain 385-99), whole virus (West Nile virus strain 385-99 (USA99b)).
T2 construct: mature
Briefly: phage ELISA on coated whole inactivated WNV. In general terms: An ELISA detects its analyte on a solid surface through an enzyme-linked reagent.
Regarding B1, the “OD 492 nm” value was found to be 1.21 OD. As to B2, the “OD 492 nm” value came out at 1.04 OD. For B3, the “OD 492 nm” value worked out at 0.759 OD. On to B4, for which the “OD 492 nm” value is 0.984 OD. Take B5: the “OD 492 nm” value was 1.07 OD.

Another assay has as its target T1, recombinantly expressed purified …. The assay is described as follows: phage ELISA on coated recombinant soluble WNV E protein.
As for B1, the “OD 492 nm” value was found to be 0.074 OD. Regarding B6, the “OD 492 nm” value is 0.076 OD. As for B2, the “OD 492 nm” value came out at 1.54 OD. In the case of B7, the “OD 492 nm” value worked out at 1.36 OD.

For the molecule B8, the “OD 492 nm” value came to 0.099 OD. Still for that read-out and setting: with B3 the figure was 1.39 OD. Take B4: the “OD 492 nm” value turned out to be 0.608 OD. Consider B5, for which the “OD 492 nm” value came out at 0.072 OD.

Take B9: the “OD 492 nm” value stood at 1.4 OD.
